The target of this test is T1, GST-nephrin-CD (residues 1102–1252) (rat, UniProt Q9R044 1102-1252).
T1 sequence (looked up): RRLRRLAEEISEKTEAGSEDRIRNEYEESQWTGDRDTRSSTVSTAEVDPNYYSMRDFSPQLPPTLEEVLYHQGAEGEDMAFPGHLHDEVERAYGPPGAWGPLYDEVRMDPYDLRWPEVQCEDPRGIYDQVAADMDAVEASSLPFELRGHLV
Kind of test: pull-down.

1 molecule from paper PMC3103399 (Molecular Biology of the Cell, 2011) can be followed below.

Non-standard residues stand in square brackets, D forms with d. No end group written: not given here. pY = N[C@@H](Cc1ccc(OP(=O)(O)O)cc1)C(=O)O

In the case of CLASPA[pY]LSLSSE [phosphorylated TRPC6 Y284 peptide], the binding result is “binds”.
